For experiment [1], the target named is T1, Cynomolgus CTGF-Fc (fusion protein of cynomolgus CTGF coding region with Fc) (cynomolgus).
T1 construct: also called cyno-CTGF-mFc protein; cyno-CTGF protein with Fc tag
The experiment in a line: ELISA, cyno-CTGF-Fc captured by anti-mFc. The protocol: The binding activity of anti-monkey CTGF antibody to monkey CTGF protein was tested by ELISA assay. A 96-well microtiter plate was directly coated with anti-mFc protein, and then the cyno-CTGF protein with Fc tag was bound to the plate, and then the antibody was added. The signal strength upon the addition of the antibody was used to determine the binding activity of the antibody to cyno-CTGF. The specific experimental procedures were as follows:
The anti-mFc Protein (Sigma, Cat No. M4280) was diluted with PBS, pH 7.4 (Shanghai Yuanpei, Cat No. B320) buffer to a concentration of 2 μg/ml, which was added into the 96-well microtiter plate (Corning, Cat No. CLS3590-100EA) at 50 μl/well, and incubated in an incubator at 37° C. for 2 hours. The liquid was removed, 250 μl/well blocking solution (5% skim milk (BD skim milk, Cat No.232100) diluted in PBS) was added, and incubated in an incubator at 37° C. for 3 hours or at 4° C. overnight (16-18 hours) for blocking. After the blocking was finished, the blocking solution was removed, the plate was washed for 3 times with PBST buffer (PBS containing 0.1% Tween-20, pH 7.4), 50 μl of 1 μg/ml cyno-CTGF-mFc protein was added into each well, incubated in an incubator at 37° C. for 1 hour, and then the plate was washed for 3 times with PBST buffer (PBS containing 0.1% Tween-20, pH 7.4). 50 μl/well of various concentrations of each of the test antibodies (antibodies purified from hybridoma or humanized antibodies) diluted with sample dilution solution were added, and incubated in an incubator at 37° C. for 1 hours. After the incubation was finished, the plate was washed for 3 times with PBST, 50 μl/well of HRP-labeled goat anti-mouse secondary antibody (Jackson Immuno Research, Cat No. 115-035-003) or goat anti-human secondary antibody (Jackson Immuno Research, Cat No. 109-035-003) diluted with sample dilution solution was added, and incubated at 37° C. for 1 hour. The plate was washed for 5 times with PBST, 50 μl/well of TMB chromogenic substrate (KPL, Cat No. 52-00-03) was added, incubated at room temperature for 5-10 min, and 50 μl/well of 1 M H₂SO₄ was added to stop the reaction. The absorbance value was read by a microplate reader (Molecular Devices, VERSA max) at a wavelength of 450 nm, and the data was analyzed with GraphPad Prism 5. The binding of CTGF antibody to cyno CTGF protein was calculated as EC50 value.

The target in experiment [2] is T2, mouse CTGF (antigen of the Biacore assay) (mouse, UniProt P29268 26-348).
T2 construct: also called mouse CTGF protein
T2 sequence (looked up): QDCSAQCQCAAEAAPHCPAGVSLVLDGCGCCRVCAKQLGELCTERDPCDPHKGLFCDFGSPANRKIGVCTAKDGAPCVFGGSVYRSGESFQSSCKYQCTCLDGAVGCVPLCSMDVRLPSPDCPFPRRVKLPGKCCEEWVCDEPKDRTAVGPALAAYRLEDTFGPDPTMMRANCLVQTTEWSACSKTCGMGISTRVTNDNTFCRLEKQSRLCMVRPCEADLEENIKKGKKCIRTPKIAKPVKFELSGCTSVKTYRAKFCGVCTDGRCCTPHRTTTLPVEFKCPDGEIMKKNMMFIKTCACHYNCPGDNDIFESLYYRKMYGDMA
The experiment in a line: Biacore, antibody captured on Protein A, mouse CTGF in flow, 1:1 fit. Put shortly: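 Antibodies captured on a Protein A chip, with human or mouse CTGF flowed over in HBS-EP running buffer; association and dissociation recorded in real time. Surface regenerated with glycine-HCl pH 1.5 between cycles; kinetics fitted to a 1:1 model.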

T1 sequence (chain, as listed by the source limits assumed): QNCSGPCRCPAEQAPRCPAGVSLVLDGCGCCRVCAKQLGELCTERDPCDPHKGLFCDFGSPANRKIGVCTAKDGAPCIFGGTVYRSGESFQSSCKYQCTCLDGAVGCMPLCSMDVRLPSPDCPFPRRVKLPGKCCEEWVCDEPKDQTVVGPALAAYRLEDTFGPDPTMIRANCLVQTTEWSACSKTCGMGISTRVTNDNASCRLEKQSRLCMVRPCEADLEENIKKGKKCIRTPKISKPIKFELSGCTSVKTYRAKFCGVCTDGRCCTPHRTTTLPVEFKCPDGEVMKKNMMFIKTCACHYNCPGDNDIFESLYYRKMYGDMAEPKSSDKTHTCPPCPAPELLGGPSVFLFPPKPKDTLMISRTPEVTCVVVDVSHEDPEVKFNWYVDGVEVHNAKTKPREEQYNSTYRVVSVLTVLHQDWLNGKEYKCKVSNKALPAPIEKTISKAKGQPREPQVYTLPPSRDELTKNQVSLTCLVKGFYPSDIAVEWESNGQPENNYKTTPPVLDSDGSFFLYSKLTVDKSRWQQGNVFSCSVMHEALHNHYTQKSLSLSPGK

B1: Hu164-57wl (antibody, human IgG1, lambda, V domains shown)
VH: EVTLKESGPVLVKPTETLTLTCTVSGFSLSTFGVHWIRQPPGKALEWLAVIWRRGGTDYNAAFMSRLTISKDTSKSQVVLTMTNMDPVDTATYYCARDGGFDYWGQGTTVTVSS
VL: ETVVTQEPSLTVSPGGTVTLTCRSSIGAVTTSNYANWVQQKPGQAFRGLIGGTSNRAPWTPARFSGSLLGGKAALTLSGVQPEDEAEYYCALWYSTHYVFGGGTKLTVLG
B1 showed an EC50 in experiment [1] of 0.029 nM. In experiment [2], this molecule yielded a Kd of 0.0322 nM, a koff of 0.00237 s⁻¹ and a kon of 7.35e+07 M⁻¹ s⁻¹.

Values taken from patent publication US20220324953A1 (JIANGSU HENGRUI MEDICINE, published 2022).
